In patent publication US20090291081A1 (AbbVie / Abbott, published 2009) one finds IC50 data, which are given here for 23 molecules.

The target of the assay is T1, human IL-1β (human, UniProt P01584 117-269).
T1 construct: antigen of the ABT2 dAbs; also called hIL-1β; IL-1 beta
Nature of the assay: IC50 column of Table 63; receptor binding assay presumed.

B1: ABT2-65-75 (other)
VH: EVQLLESGGGLVQHGGSLRLSCVASGFTFEDYQMGWVRQAPGKGLEWVSSISAMGNRTYYADSVKGRFTISRDDSKNTLYLQMNSLRAEDTAVYYCAQNLVRLGKSRWMFDYWGQGTLVTVSS
notes: VH dAb
In turn, B1 had an IC50 of 30 nM.

B2: ABT2-65-118 (other)
VH: EVQLLESGGGLVQPGGSLRLSCAASGFTFATYTMGWVRQAPGKGLEWVSSISAMGNRTYYADSVKGRFTISRDDSKNTLYLQMNSLRAEDTAVYYCAQNLVRLGRSRWMFDYWGQGTLVTVSS
notes: VH dAb
For the molecule B2, the 50% inhibitory concentration (IC50) was found to be 4.6 nM. This IC50 is about 6.5-fold lower than that of the molecule before.

B3: ABT2-65-78 (other)
VH: EVQLLESGGGLVQPGGSLRLSCVASGFTFEDYQMGWVRQAPGKGLEWVSSISAMGNRTYYADSVKGRFTISRDDSKNTLYLQMNSLRAEDTAVYYCAQNLVRLGTSRWMFDYWGQGALVTVSS
notes: VH dAb
As to B3, the half-inhibitory concentration (IC50) worked out at 30 nM.

B4: ABT2-65-127 (other)
VH: EVQLLESGGGLVQPGGSLRLSCVASGFTFEDYQMGWVRQAPGKGLEWVTSISAMGNRTYYADSVKGRFTISRDDSKNTLYLQMNSLRAEDTAVYYCAQNLVRLGRSRWMFDYWGQGTLVTVSS
notes: VH dAb
Molecule B4 displayed an IC50 of 5.5 nM.

B5: ABT2-65-119 (other)
VH: EVQLLESGGGLVQPGGSLRLSCAASGFTFIAYPMGWVRQAPGKGLEWVSSISAMGNRTYYADSVKGRFTISRDDSKNTLYLQMNSLRAEDTAVYYCAQNLVRLGRSRWMFDYWGQGTLVTVSS
notes: VH dAb
On to B5, for which the IC50 worked out at 4 nM.

B6: ABT2-65-76 (other)
VH: EVQLLESGGGLVQPGGSLRLSCVASGFTFEDYQMGWVRQAPGKGLEWVTSISAMGNRTYYADSVKGRFTISRDDSKNTLYLQMNSLRAEDTAVYYCAQNLVRLGRSRWMFDYWGQGTLVTVSS
notes: VH dAb
In turn, B6 displayed a concentration for half-maximal inhibition (IC50) of 8 nM.

B7: ABT2-65-121 (other)
VH: EVQLLESGGGLVQPGGSLRLSCVASGFTFEDYQMGWVRQAPGKGLEWVSSIAAHGNRTYYADSVKGRFTISRDDSKNTLYLQMNSLRAEDTAVYYCAQNLVRLGRSRWMFDYWGQGTLVTVSS
notes: VH dAb
Molecule B7 came in with an IC50 of 3.9 nM. Compared with the last molecule, the IC50 is about 2.1-fold lower.

B8: ABT2-65-129 (other)
VH: EVQLLESGGGLVQPGGSLRLSCVASGFTFEDYQMGWVRQAPGKGLEWVSTVSAMGNRTYYADSMKGRFTISRDDSKNTLYLQMNSLRAEDTAVYYCAQNLVRLGRSRWMFDYWGQGTLVTVSS
notes: VH dAb
With B8, the IC50 came to 3.4 nM.

B9: ABT2-65-130 (other)
VH: EVQLLESGGGLVQPGGSLRLSCVASGFTFEDYQMGWVRQAPGKGLEWVSSISAMVNRTYYADSVKGRFTISRDDSKNTLYLQMNSLRAEDTAVYYCAQNLVRLGRSRWMFDYWGQGTLVTVSS
notes: VH dAb
Molecule B9 came in with an IC50 of 4.3 nM.

B10: ABT2-65-90 (other)
VH: EVQLLESGGGLVQPGGSLRLSCVASGFTFEDYQMGWVRQAPGKGQEWVSSISAMGNRTYYADSVKGRFTISRDDSKNTLYLQMNSLRAEDTAVYYCAQNLVRLGRSRWMFDYWGHGTLVTVSS
notes: VH dAb
The molecule B10 had an IC50 of 300 nM.

B11: ABT2-65-132 (other)
VH: EVQLLESGGGLVQPGGSLRLSCAASGFTFEDYQMGWVRQAPGKGLEWVSSISAMGNRTYYADSVKGRFTISRDDSKNTLYLQMNSLRAEDTAVYYCAENLVRLASRRWMFDYWGQGTLVTVSS
notes: VH dAb
In turn, B11 returned an IC50 of 5 nM.

B12: ABT2-65-115 (other)
VH: EVQLLESGGGLVQPGGSLRLSCAASGFTFIDYQMGWVRQAPGKGLEWVSSISAMGNRTYYADSVKGRFTISRDDSKNTLYLQMNSLRAEDTAVYYCAQNLVRLGRSRWMFDYWGQGTLVTVSS
notes: VH dAb
As to B12, the half-maximal inhibitory concentration (IC50) worked out at 4 nM.

B13: ABT2-65-84 (other)
VH: EVQLLESGGGLVQPGGSLRLSCVASGFSFEDYQMGWVRQAPRKGLEWISSISAMGNRTYYADSVKGRFTISRDDSKNTLYLQMNSLRAEDTAVYYCAQNLVRLGRSRWMFDYWGQGTLVTVSS
notes: VH dAb
B13: the IC50 amounted to 60 nM.

B14: ABT2-65-126 (other)
VH: EVQLLESGGGLVQPGGSLRISCVTSGFTFEDYQMGWVRQAPGKGLEWVSSISAMGNRTYYADSVKGRFTISRDDSKNTLNLQMNSLRAEDTAVYYCAQNLVRLGRSRWVFDYWGQGTLVTVSS
notes: VH dAb
Molecule B14 returned an IC50 of 4.3 nM.

B15: ABT2-65-117 (other)
VH: EVQLLESGGGLVRPGGSLRLSCVASGFTFEDYQMGWVRQAPGKGLEWISSISAMGNRTYYADSVKGRFTISRDDSKNTLYLQMNSLRAEDTAVYYCAQNLVRLGRSRWMFDYWGQGTLVTVSS
notes: VH dAb
Molecule B15 had an IC50 of 10 nM. This IC50 lies about 2.3-fold higher than the previous one.

B16: ABT2-65-131 (other)
VH: EVQLLESGGGLVQPRGSLRLSCVASGFTFEDYQMGWVRQAPGKGLEWVSSISTMGNRTYYADSVKGRFTISRDDSKNTLYLQMNSLRAEDTAVYHCAQNLVRLGRSRWMFDYWGQGTLVTVSS
notes: VH dAb
B16 gave an IC50 of 13.2 nM.

B17: ABT2-65-125 (other)
VH: EVQLLESGGGLVQPGGSLRLSCVASGFTFEDYQMGWVRQAPGKGLEWISSISAMGNRTYYADSVKGRFTISRDDSKNTLYLQMNSLRAEDTAVYYCAQNLVRLGRSRWMFDYWGQGTLVTVSS
notes: VH dAb
B17 had an IC50 of 4 nM.

B18: ABT2-65-83 (other)
VH: EVQLLESGGGLVQPGGSLRLSCVASGFTFEDYQMGWVRQAPGKGLEWVSSISAMGNRTYYADSVKGRFTISRDDSKNTLYLQMNSQRAEDTAVYYCAQNLVRLGRSRWMFDYWGQGTLVTVSS
notes: VH dAb
Take B18: the 50% inhibitory concentration (IC50) is 300 nM.

B19: ABT2-65-133 (other)
VH: EVQLLESGGGLVQPGGSLRLSCAASGFTFEDYQMGWVRQAPGKGLEWVSSISAMGNRTYYADSVKGRFTISRDDSKNTLYLQMNSLRAEDTAVYYCAENLVHWKRGGWMFDYWGQGTLVTVSS
notes: VH dAb
Turning to B19, the IC50 worked out at 30 nM. This IC50 is about 10-fold lower than that of the molecule before.

B20: ABT2-65-114 (other)
VH: EVQLLESGGGLVQPGGSLRLSCAASGFTFREYMMGWVRQAPGKGLEWVSSISAMGNRTYYADSVKGRFTISRDDSKNTLYLQMNSLRAEDTAVYYCAQNLVRLGRSRWMFDYWGQGTLVTVSS
notes: VH dAb
B20: the IC50 was determined as 4 nM.

B21: ABT2-65-87 (other)
VH: EVQLLESGGGLVQPGGSLRLSCVASGFTFEDYQMGWVRQAPGKDLEWVSSISAMGNRTYYADSVKGRFTISRDDSKNTLYLQMNSLRAEDTAVYYCAQNLVRLGRSRWMFDYWGQGTLVTVSS
notes: VH dAb
Molecule B21 registered an IC50 of 50 nM.

B22: ABT2-65-124 (other)
VH: EVQLLESGGGLVQPGGSLRLSCVASGFTFEDYQMGWVRQAPGKGLEWVSSISAVGNRTYYADSVKGRFTISRDDSKNTLYLQMNSLRAEDIAVYYCAQNLVRLGRSRWMFDYWGQGTLVTVSS
notes: VH dAb
As to B22, the IC50 came out at 3.8 nM.

B23: ABT2-65-120 (other)
VH: EVQLLESGGGLVQPGGSLRLSCVASGFTFEDYQMGWVRQAPGKGLEWVSSISAMGMRTYYADSVKGRFTISRDDSKNTLYLQMNSLRAEDTAVYYCAQNLVRLGRSRWMFDYWGQGTLVTVSS
notes: VH dAb
With B23, the IC50 worked out at 4.2 nM.
